# Values quoted from earlier work as cited in paper PMC4153603.
# How the values were obtained:
# [1] = target: Kv1.3 (Homo sapiens) (UniProt P22001)
# [2] = target: Kv1.1 (Homo sapiens) (UniProt Q09470)
# Chain of UniProt Q09470 (Q09470 whole entry): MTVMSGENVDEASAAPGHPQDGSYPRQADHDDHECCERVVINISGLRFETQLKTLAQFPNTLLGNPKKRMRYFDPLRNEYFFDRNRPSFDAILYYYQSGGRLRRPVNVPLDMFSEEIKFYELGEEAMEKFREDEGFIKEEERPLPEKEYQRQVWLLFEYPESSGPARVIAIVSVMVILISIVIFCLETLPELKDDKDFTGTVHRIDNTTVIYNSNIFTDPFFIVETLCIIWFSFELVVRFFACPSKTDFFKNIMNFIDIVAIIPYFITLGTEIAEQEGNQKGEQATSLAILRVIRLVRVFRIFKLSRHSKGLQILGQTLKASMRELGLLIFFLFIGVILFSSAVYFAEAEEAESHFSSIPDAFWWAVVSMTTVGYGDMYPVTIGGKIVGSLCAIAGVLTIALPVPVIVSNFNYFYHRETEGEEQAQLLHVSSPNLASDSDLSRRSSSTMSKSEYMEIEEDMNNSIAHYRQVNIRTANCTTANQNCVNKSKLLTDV
# Chain of UniProt P22001 (P22001 whole entry): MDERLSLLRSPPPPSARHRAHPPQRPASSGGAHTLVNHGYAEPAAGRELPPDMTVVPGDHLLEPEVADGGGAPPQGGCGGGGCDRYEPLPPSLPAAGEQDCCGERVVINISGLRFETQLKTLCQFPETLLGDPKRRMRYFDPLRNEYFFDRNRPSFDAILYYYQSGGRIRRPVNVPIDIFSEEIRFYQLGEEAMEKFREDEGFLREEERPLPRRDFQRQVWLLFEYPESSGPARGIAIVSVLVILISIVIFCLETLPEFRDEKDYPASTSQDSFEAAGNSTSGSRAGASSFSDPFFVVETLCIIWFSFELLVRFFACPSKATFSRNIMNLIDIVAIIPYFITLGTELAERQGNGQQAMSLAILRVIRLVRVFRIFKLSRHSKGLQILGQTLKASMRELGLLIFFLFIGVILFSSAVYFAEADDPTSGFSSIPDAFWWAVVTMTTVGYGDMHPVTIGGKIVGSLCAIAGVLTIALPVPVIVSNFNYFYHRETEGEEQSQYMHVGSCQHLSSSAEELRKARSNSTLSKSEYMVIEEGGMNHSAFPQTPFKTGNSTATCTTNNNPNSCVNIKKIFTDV
substance,measurement,setting,value
ShK (from UniProt P29187),Kd,[1],0.01 nM
same,Kd,[2],0.028 nM
